Test results as given in the RNAGym collection of RNA variant scans (doi:10.7554/elife.80360).

B1: HDV Ribozyme (parent)
chain: GGCCGGCAUGGUCCCAGCCUCCUCGCUGGCGCCGGCUGGGCAACAUUCCGAGGGGACCGUCCCCUCGGUAAUGGCGAAUGGGACCCA

Variants of: B1
Test: self-cleavage, relative activity (ratio to wild type); higher = more cleavage; co-transcriptional

Variant	self-cleavage
U37G G53A	0.147
U37C G76C	1.19
U37G G59C	0.192
G38U U65C	0.415
G38U G67U	0.166
G38U G67A	0.237
C36G U37A	0.446
C36G U37C	0.158
U37G C57A	0.0978
G38C C63A	0.332
G38C C63G	0.287
C36G U47G	0
U37C A83U	0.534
G38A C58G	0.141
G38A C58A	0.115
U37A G38C	0.0923
C36U C62A	0.53
U37C A42C	0.115
C36U C75U	0.244
G39A C44A	0.0405
G39A C44G	0.108
G38A G81A	0.227
C36U G52U	0.72
G38A C49A	0.172

Variant	self-cleavage
G38A C49G	0.151
G38A U72C	0.108
U37A C49A	0.161
U37G G74U	0.213
G38U C84G	0.115
U37G C84G	0
C36U C48G	0.831
C36G A83G	0.151
C36G A83C	0.0831
G38A U46A	0
G38A U46G	0.111
G38A G55C	0.218
G38C C57U	0.282
U37C C86A	0.974
C36G A45G	0.185
C36G A45C	0.0504
C36G G59U	0.199
U37G G52A	0.106
U37G G52C	0.178
C36U G59A	0.704
U37C A70U	0.974
G38C G40U	0.0332
G38U A71U	0.222
G38U A71G	0.166

Variant	self-cleavage
U37A C48A	0.208
U37G C85U	0.161
C36G G38U	0.199
G39A G40A	0.786
C36A U79C	0.086
U37A U72A	0.125
U37G C44U	0.119
G38A A77U	0.0845
G38A A77G	0.0852
G38C G54U	0.185
G38C C58U	0.408
C36G A71U	0.095
U37C A43G	0.332
G38C C49A	0.237
G38U G68A	0.163
G38U G82A	0.0886
U37C A56C	1.11
C36U C58G	0.759
C36U A56G	0.628
C36G U46G	0.0692
G38U A42C	0.0941
G38U G76A	0.145
G38U G76C	0.228
G38U C85U	0.269

Variant	self-cleavage
C36G A70U	0.119
U37A G39A	0
U37A G39U	0.122
U37G C75A	0.156
U37G C75U	0.0594
U37A A78U	0.0369
U37A A78C	0.0997
G38C U47A	0.249
C36U A43G	0.196
U37A C58G	0.369
U37A A51G	0.302
G38C C41G	0.406
C36A G76A	0.266
G38U G55U	0.21
G38U G55C	0.19
C36G C61A	0.116
U37A U65G	0.244
U37C C63U	1.11
G39A C86A	0.53
G38A A43G	0.155
G38C U60C	0.231
G38C U60A	0.38
C36G G73A	0.0723
C36G G73C	0.185

Variant	self-cleavage
U37C A45U	0.639
U37A G67C	0.128
U37G C64G	0.0437
U37G C64A	0.122
G38A C41G	0.291
G38C G74A	0.0936
U37C C44U	0.529
U37G U72C	0.119
U37G U72A	0
U37C U47G	0.8
U37C U47C	0.791
U37C U60G	0.906
G38U G81A	0.128
G38U G81C	0.0678
U37G G76U	0.104
U37G G76C	0.142
U37C C84U	0.655
U37G U46C	0.128
G38A G52A	0.173
G38A G52C	0.0692
G39A C75A	0.0755
G39A C75U	0.178
G38C A83G	0.201
G38C A83C	0.107

Variant	self-cleavage
G38C A83U	0.0361
U37A G53C	0.162
U37A A42C	0.246
U37A A42U	0.131
G38U C63U	0.24
G38U C63A	0.159
G38U C63G	0.0978
U37A G54U	0.245
U37A G54A	0.104
C36G U72G	0.151
G38C U46C	0.0923
G38C U46G	0.095
G38U C66G	0.0764
G38A C61A	0.105
G38U C61A	0.248
U37A G74U	0.208
U37A C63U	0.339
G38A A56C	0.13
G38A A56U	0.218
U37G A70C	0.312
C36G G52C	0.166
G38A A71G	0.177
G38A A71C	0.032
C36G C64U	0.138

Variant	self-cleavage
C36G C64G	0.156
U37G U60A	0.0504
C36G C63A	0.269
C36G C63G	0.212
U37A C62A	0.212
U37A C62U	0.104
C36U G50U	0.841
G38A A51G	0.141
C36G U65C	0.18
G39A A42U	0.272
G39A A42G	0.0292
G39A A70C	0.277
G39A A51C	0.389
G38U A45C	0.181
U37G G54A	0.0755
G39A A45U	0.389
U37A C41U	0.403
C36G C41U	0.199
C36U G54A	0.494
U37C G52C	0.856
G38A G74C	0.161
U37C G74U	0.332
G39A C49G	0.366
G38A C63A	0.0978

Variant	self-cleavage
G38A C63G	0.0811
G38U G74A	0.0248
C36U C86G	0.703
C36U C86A	0.747
U37A C84G	0.151
C36U G53A	0.641
G39A C66U	0.472
U37G C49U	0.268
U37G C49A	0.0573
U37G C49G	0.196
G38U A78C	0.086
G38U A78U	0.0911
C36U A83U	0.408
U37A C86U	0.35
U37A C86A	0.256
C36A G80U	0.0825
U37A G76U	0.469
C36U G55A	0.612
G38U A70U	0.277
C36U C57U	0.679
G38U A83G	0.0866
U37G U65G	0.0573
U37C G39U	0.564
U37G G40U	0.203

Variant	self-cleavage
C36G C85U	0.151
U37C G50C	1.07
U37C G50A	1.01
G38A A87U	0.121
U37A A71U	0.394
U37A A71C	0.19
U37A G55U	0.0723
C36G A77U	0.177
C36A U69G	0.161
G38C A51U	0.181
G38C A51C	0.277
G38A A70G	0
C36U U72G	0.431
C36U U72C	0.102
U37A C85A	0.332
G38U G39C	0
G38A G54U	0.073
G38A G54C	0.237
C36U A42C	0.155
U37C G55C	1.1
C36G C66U	0.0997
G38A C86G	0.107
C36A U47A	0.196
G38A U60A	0.117

Variant	self-cleavage
G38C U69C	0.18
U37C G40A	0.95
U37A G82A	0.138
C36G A43U	0.0755
G38A G73C	0.13
G38A G73U	0.0978
G38A G82C	0.262
G38A G82A	0.0482
C36U U46A	0.462
G38U C44U	0.126
C36U U69G	0.519
C36G G82A	0.07
C36G G82U	0.142
U37A C66U	0.314
U37A C66A	0.29
C36G C48G	0
G38U G54C	0.4
U37A G52C	0.213
C36A G82A	0.071
C36U G39A	0
C36U G39U	0.245
C36U C63U	0.904
C36G A78G	0.0639
C36G A78U	0.0346

Variant	self-cleavage
G38C A87C	0.26
G39A C85U	0.465
G39A C85A	0.332
G38U C62G	0.0831
G38U C62A	0.317
U37A C61A	0.138
U37G U79A	0
C36G G81C	0.0656
G38A C44U	0.136
G38A C44A	0.0678
U37C U46A	0.458
C36G U79G	0.0437
C36G G53C	0.158
G38C G81C	0.0354
G38C G81U	0.0779
U37C G53C	1.2
U37C G53A	1.04
G38C G59C	0.266
U37C A87G	1.09
U37C A87C	1.21
U37C G80U	0.224
G38A C64G	0.142
C36U A71G	0.653
G38C G82U	0.162

Variant	self-cleavage
G38C G82C	0.222
G38U C75A	0.208
C36G G67U	0.0361
C36G G67A	0.157
U37A C57U	0.146
U37A C57A	0.212
G38C C86G	0.217
C36U G67U	0.431
C36U G67A	0.712
C36G U69A	0.229
C36G U69G	0.0554
C36G U69C	0.155
C36U A51G	0.652
G38A G50C	0.0831
G38U A56C	0.266
U37G C62A	0.0594
G38A G59U	0.182
G38A G59C	0.0256
U37C G59A	1.1
C36U G81C	0.12
C36U G81U	0.29
C36G G68A	0.233
C36G G68C	0.17
U37C G38A	0.0354

Variant	self-cleavage
G38C C44A	0.0354
U37A U47G	0.222
G38U A43C	0.0811
G38U U46A	0.106
U37G G39C	0.185
U37C C66U	1.01
G38U C86A	0.297
G38C G73A	0.185
G38C C84G	0.0489
U37G A56C	0
U37G A56U	0.0723
U37G C48U	0
G38U C58U	0.295
G39A C63A	0.538
G39A C63G	0.352
U37G A45U	0
U37A U69G	0.369
G38A U79G	0.151
G38C C64A	0.228
U37G C86U	0.249
U37G C86G	0.111
C36U A78G	0.128
G38U G40C	0.0923
U37G G81U	0.0489

Variant	self-cleavage
U37G G81C	0
G38A A45U	0.107
G38A A45G	0.155
G38U G50C	0.225
G38A G68A	0.21
G38U A87G	0.16
G38C A78C	0
U37G A51G	0.0639
C36U U79A	0.253
C36U U79C	0.201
C36A U46G	0.123
C36U C64U	0.628
C36G G39C	0.232
G38U A51U	0.308
G38C C66A	0.189
G38C C66G	0.203
U37A C44G	0.0898
G39A A77C	0.108
G39A A77U	0.176
G39A A83C	0.277
C36G C62U	0.246
C36G C44A	0.128
